From patent publication US7049080B2, “Process for detecting serine/threonine kinase activity” (priority 2000, dated 2006) come the findings set out here.

The test system of data set [1] is polyclonal phospho-JNK antibody NEB #9251. Kind of data set: Binding of polyclonal phospho-JNK antibody to TAMRA-labelled peptides (fluorescence polarization). Set-up: species or system rabbit. The text has this:
The polarization values dramatically increase when using the double-phosphorylated peptide substrate P1*^∘ in contrast to mono-phosphorylated labelled peptide P1^∘ (sequence see above).
Measurement of the Binding Affinity (KD) of Antibody NEB #9251:
This polyclonal antibody detects all three isoforms of the SAPK1/JNK proteins only when they are activated by dual phosphorylation at threonine183/tyrosine185. Binding of poly-clonal phospho-JNK antibody (at a dilution of 1:20) from NEB to TAMRA-labelled P1^∘- and P1*^∘ peptides (each 5 nM) was measured by fluorescence polarization.
Background: Polarisation of emitted light reports the rotation of a fluorescent probe.

The test system of data set [2] is NEB antibody #9251. Description: FP controls conjugate/high/low (Example 8). The settings on record: 0 h. The class given is binding, rabbit. How it is done: The following reagents have been used (explanations later on): Hepes buffer, MgCl2 (10 mM), ATP (20 μM), P1^∘ peptide (100 μM), polyclonal antibody NEB #9251 (1:20), P1*^∘-TAMRA (5 nM), Pluronic (0.1%), BSA (0.01%), MKK7 at (0.04, 0.08 and 0.2 μM), EDTA (10 mM) (all final conc.).
The enzyme reactions were performed in Eppendorf reaction tubes at RT. Aliquots of 20 μl were withdrawn from the reactions at different time points and mixed with 10 μl STOP solution. The stopped reactions were incubated at RT for at least 30 min and measured by Fluorescence Polarization.
(§1) Bis-phosphorylated peptide P1*^∘ can be used as competitor, resulting in free labelled ligand called “low” or “negative control”. This can be seen in the following table 1.

Data set [3] has as its system T1, P1° peptide, H-Lys-Phe-Met-Met-Thr-Pro-pTyr-Val-Val-Thr-Arg-NH2.
T1 sequence: KFMMTPYVVTR

In data set [4] the test system is NEB antibody #9251. Description: FP controls conjugate/high/low (Example 7). It counts as binding, rabbit. The note with it: 0 h. How it is done: The following reagents have been used (the compositions of the buffers and specifications of the reagents are explained in more detail later on): Hepes buffer, MgCl2 10 mM, ATP 20 μM, P1^∘ peptide at 100 μM, NEB antibody # 9251 1:20 dilution, P1*^∘-TAMRA 5 nM, Pluronic 0.1%, MKK7 at 0, 0.005, 0.02, 0.08, 0.2, 0.5 and 2 μM.
After addition of MKK7, the enzyme reactions were performed in Nunc chambers at RT. The samples were continuously measured at different time points by Fluorescence polarization.
as §1

pKd: −log10 of the molar value. Non-standard residues stand in square brackets, D forms with d. No end group written: not given here. *: point of attachment. 5‑TAMRA = CN(C)c1ccc2c(-c3ccc(C(=O)*)cc3C(=O)[O-])c3ccc(N(C)C)cc3[o+]c2c1; pY = N[C@@H](Cc1ccc(OP(=O)(O)O)cc1)C(=O)O; pT = C[C@@H](OP(=O)(O)O)[C@H](N)C(=O)O; AEEA = NCCOCCOCC(=O)O

Regarding “TAMRA-labelled P1^∘-peptide: TAMRA-labelled mono-phosphorylated P1° peptide, control for antibody binding (KFMMTP[pY]VVTR-NH2; not fully specified (residue 5, N-terminus); also: TAMRA label, site not given here)”, in data set [1] (control), the “binding of the polyclonal JNK antibody” value is “no binding”.

For “H-Lys-Phe-Met-Met-Thr-Pro-pTyr-Val-Val-Thr-Arg-NH2 (H-KFMMTP[pY]VVTR-NH2; SMILES CSCC[C@H](NC(=O)[C@H](Cc1ccccc1)NC(=O)[C@@H](N)CCCCN)C(=O)N[C@@H](CCSC)C(=O)N[C@H](C(=O)N1CCC[C@H]1C(=O)N[C@@H](Cc1ccc(OP(=O)(O)O)cc1)C(=O)N[C@H](C(=O)N[C@H](C(=O)N[C@H](C(=O)N[C@@H](CCCNC(=N)N)C(N)=O)[C@@H](C)O)C(C)C)C(C)C)[C@@H](C)O) [P1^∘]”, the “Fluorescence Polarization” value with NEB antibody #9251 [2] (Low: P1*°-Tamra + NEB ab (1:20) + competitor 200 nM) was 71.5 mP.

In data set [3], “MKK7 kinase (Upstate Biotech cat. no. 14-366)” came in with an FP, 100 µM P1°, MKK7 0.005 µM, 0 h of 132 mP; an FP, 100 µM P1°, MKK7 0.005 µM, 0.5 h of 137 mP; an FP, 100 µM P1°, MKK7 0.005 µM, 1 h of 137 mP; an FP, 100 µM P1°, MKK7 0.005 µM, 1.5 h of 137 mP. Further, in data set [3], the FP, 100 µM P1°, MKK7 0.005 µM, 3 h turned out to be 138 mP; the FP, 100 µM P1°, MKK7 0.02 µM, 0 h was 135 mP; the FP, 100 µM P1°, MKK7 0.02 µM, 0.5 h is 140 mP; the FP, 100 µM P1°, MKK7 0.02 µM, 1 h came out at 141 mP. In data set [3], this substance came in with an FP, 100 µM P1°, MKK7 0.02 µM, 1.5 h of 140 mP; an FP, 100 µM P1°, MKK7 0.02 µM, 3 h of 140 mP; an FP, 100 µM P1°, MKK7 0.08 µM, 0 h of 134 mP; an FP, 100 µM P1°, MKK7 0.08 µM, 0.5 h of 138 mP. In data set [3], this substance registered an FP, 100 µM P1°, MKK7 0.08 µM, 1 h of 136 mP; an FP, 100 µM P1°, MKK7 0.08 µM, 1.5 h of 128 mP; an FP, 100 µM P1°, MKK7 0.08 µM, 3 h of 115 mP; an FP, 100 µM P1°, MKK7 0.2 µM, 0 h of 135 mP. For the same substance, in data set [3], the FP, 100 µM P1°, MKK7 0.2 µM, 0.5 h turned out to be 132 mP; the FP, 100 µM P1°, MKK7 0.2 µM, 1 h is 122 mP; the FP, 100 µM P1°, MKK7 0.2 µM, 1.5 h was determined as 114 mP; the FP, 100 µM P1°, MKK7 0.2 µM, 3 h came to 105 mP. In data set [3], this substance returned an FP, 100 µM P1°, MKK7 0.5 µM, 0 h of 135 mP; an FP, 100 µM P1°, MKK7 0.5 µM, 0.5 h of 126 mP; an FP, 100 µM P1°, MKK7 0.5 µM, 1 h of 115 mP; an FP, 100 µM P1°, MKK7 0.5 µM, 1.5 h of 109 mP. Moreover, in data set [3], the FP, 100 µM P1°, MKK7 0.5 µM, 3 h stood at 107 mP; the FP, 100 µM P1°, MKK7 1.0 µM, 0 h worked out at 136 mP; the FP, 100 µM P1°, MKK7 1.0 µM, 0.5 h amounted to 120 mP; the FP, 100 µM P1°, MKK7 1.0 µM, 1 h is 112 mP. In data set [3], this substance had an FP, 100 µM P1°, MKK7 1.0 µM, 1.5 h of 105 mP; an FP, 100 µM P1°, MKK7 1.0 µM, 3 h of 108 mP; an FP, NEB ab in STOP sol., MKK7 0.04 µM, 0 h of 147 mP; an FP, NEB ab in STOP sol., MKK7 0.04 µM, 0.5 h of 142 mP. Besides, in data set [3], the FP, NEB ab in STOP sol., MKK7 0.04 µM, 1 h turned out to be 140 mP; the FP, NEB ab in STOP sol., MKK7 0.04 µM, 1.5 h was determined as 136 mP; the FP, NEB ab in STOP sol., MKK7 0.04 µM, 2 h is 134 mP; the FP, NEB ab in STOP sol., MKK7 0.04 µM, 3 h was determined as 138 mP. In data set [3], the FP, NEB ab in STOP sol., MKK7 0.08 µM, 0 h is 143 mP; the FP, NEB ab in STOP sol., MKK7 0.08 µM, 0.5 h amounted to 139 mP; the FP, NEB ab in STOP sol., MKK7 0.08 µM, 1 h is 134 mP; the FP, NEB ab in STOP sol., MKK7 0.08 µM, 1.5 h was 122 mP. In addition, in data set [3], the FP, NEB ab in STOP sol., MKK7 0.08 µM, 2 h is 116 mP; the FP, NEB ab in STOP sol., MKK7 0.08 µM, 3 h is 125 mP; the FP, NEB ab in STOP sol., MKK7 0.2 µM, 0 h turned out to be 148 mP; the FP, NEB ab in STOP sol., MKK7 0.2 µM, 0.5 h came to 130 mP. Further, in data set [3], the FP, NEB ab in STOP sol., MKK7 0.2 µM, 1 h was 114 mP; the FP, NEB ab in STOP sol., MKK7 0.2 µM, 1.5 h is 103 mP; the FP, NEB ab in STOP sol., MKK7 0.2 µM, 2 h stood at 99.2 mP; the FP, NEB ab in STOP sol., MKK7 0.2 µM, 3 h turned out to be 119 mP. Besides, in data set [3], the FP, NEB ab in reaction, MKK7 0.04 µM, 0 h was 150 mP; the FP, NEB ab in reaction, MKK7 0.04 µM, 0.5 h was determined as 128 mP; the FP, NEB ab in reaction, MKK7 0.04 µM, 1 h was 126 mP; the FP, NEB ab in reaction, MKK7 0.04 µM, 1.5 h is 113 mP. In data set [3], the FP, NEB ab in reaction, MKK7 0.04 µM, 2 h came to 110 mP; the FP, NEB ab in reaction, MKK7 0.04 µM, 3 h is 78.6 mP; the FP, NEB ab in reaction, MKK7 0.08 µM, 0 h came to 138 mP; the FP, NEB ab in reaction, MKK7 0.08 µM, 0.5 h was 122 mP. In data set [3], this substance returned an FP, NEB ab in reaction, MKK7 0.08 µM, 1 h of 106 mP; an FP, NEB ab in reaction, MKK7 0.08 µM, 1.5 h of 86.4 mP; an FP, NEB ab in reaction, MKK7 0.08 µM, 2 h of 84.5 mP; an FP, NEB ab in reaction, MKK7 0.08 µM, 3 h of 65 mP. In data set [3], this substance gave an FP, NEB ab in reaction, MKK7 0.2 µM, 0 h of 137 mP; an FP, NEB ab in reaction, MKK7 0.2 µM, 0.5 h of 101 mP; an FP, NEB ab in reaction, MKK7 0.2 µM, 1 h of 83.1 mP; an FP, NEB ab in reaction, MKK7 0.2 µM, 1.5 h of 78.1 mP. Also, in data set [3], the FP, NEB ab in reaction, MKK7 0.2 µM, 2 h worked out at 72.1 mP; the FP, NEB ab in reaction, MKK7 0.2 µM, 3 h came out at 59.4 mP; the “Km for P1° peptide (read-out: fluorescence polarization)” value was “Km=94 nM±59 nM”; the “phosphorylation of P1° peptide substrate by MKK7 kinase” value was “Efficient phosphorylation of P1° peptide is measured”.

As to “5-TAMRA-AEEA-Lys-Phe-Met-Met-pThr-Pro-pTyr-Val-Val-Thr-Arg-NH2 ({5‑TAMRA-AEEA}-KFMM[pT]P[pY]VVTR-NH2; SMILES CSCC[C@H](NC(=O)[C@H](Cc1ccccc1)NC(=O)[C@H](CCCCN)NC(=O)COCCOCCNC(=O)c1ccc(-c2c3ccc(N(C)C)cc3[o+]c3cc(N(C)C)ccc23)c(C(=O)[O-])c1)C(=O)N[C@@H](CCSC)C(=O)N[C@H](C(=O)N1CCC[C@H]1C(=O)N[C@@H](Cc1ccc(OP(=O)(O)O)cc1)C(=O)N[C@H](C(=O)N[C@H](C(=O)N[C@H](C(=O)N[C@@H](CCCNC(=N)N)C(N)=O)[C@@H](C)O)C(C)C)C(C)C)[C@@H](C)OP(=O)(O)O) [P1*^∘-TAMRA]”, the pKd in data set [1] (antibody 1:20, peptide 5 nM, read-out: KD, affinity of polyclonal phospho-JNK antibody for peptide) is 8.59. The “Fluorescence Polarization” value in the data set with NEB antibody #9251 [2] (Conjugate alone) was found to be 33.2 mP; in the data set with NEB antibody #9251 [2] (High: + NEB ab (1:20)), 145.7 mP; in the data set on NEB antibody #9251 [4] (Conjugate alone), 39.7 mP; in the data set with NEB antibody #9251 [4] (High: + NEB ab (1:20)), 139.1 mP.

The term pKd denotes the negative decadic logarithm of the Kd, by convention in mol/L.
